Tested on: Escherichia coli TOP10
Test: shrunken log2 fold change of peptide-encoding DNA abundance (4.5 h post-induction vs induction); higher = less antimicrobial activity (less host growth inhibition)
Conditions: time post-induction: 4.5 h; library: site-saturation at positions 5, 18, 19, 20
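Note: peptides expressed intracellularly from a pBAD plasmid library in pooled LB shake-flask culture, induced with 0.3% L-arabinose, DNA abundance read by NGS, three biological replicates, DESeq2 with apeglm shrinkage.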

RRIRDRPPRLPRPRPRPVARPRP
shrunken log2 fold change: 0.56

RRIRARPPRLPRPRPRPGQIPRP
shrunken log2 fold change: 0.216

RRIRARPPRLPRPRPRPHVRPRP
shrunken log2 fold change: -0.0112

RRIRIRPPRLPRPRPRPFNGPRP
shrunken log2 fold change: -0.211

RRIRNRPPRLPRPRPRPTMAPRP
shrunken log2 fold change: 0.0535

RRIRIRPPRLPRPRPRPSPIPRP
shrunken log2 fold change: -0.574

RRIRCRPPRLPRPRPRPMNTPRP
shrunken log2 fold change: -0.727

RRIRTRPPRLPRPRPRPYETPRP
shrunken log2 fold change: -0.00043

RRIRTRPPRLPRPRPRPLMRPRP
shrunken log2 fold change: 0.216

RRIRCRPPRLPRPRPRPDNHPRP
shrunken log2 fold change: -0.719

RRIRERPPRLPRPRPRPQQEPRP
shrunken log2 fold change: -0.0361

RRIRCRPPRLPRPRPRPAYGPRP
shrunken log2 fold change: 0.13

RRIRVRPPRLPRPRPRPAIEPRP
shrunken log2 fold change: 0.0433

RRIRSRPPRLPRPRPRPNAEPRP
shrunken log2 fold change: 0.572

RRIRPRPPRLPRPRPRPEDEPRP
shrunken log2 fold change: 0.242

RRIRDRPPRLPRPRPRPMHNPRP
shrunken log2 fold change: -0.696

RRIRERPPRLPRPRPRPKCFPRP
shrunken log2 fold change: -0.193

RRIRCRPPRLPRPRPRPCYHPRP
shrunken log2 fold change: -0.79

RRIRFRPPRLPRPRPRPMRDPRP
shrunken log2 fold change: 0.109

RRIRSRPPRLPRPRPRPVEEPRP
shrunken log2 fold change: 0.0884

RRIRYRPPRLPRPRPRPMIVPRP
shrunken log2 fold change: -0.209

RRIRQRPPRLPRPRPRPCHPPRP
shrunken log2 fold change: -0.032

RRIRPRPPRLPRPRPRPHKMPRP
shrunken log2 fold change: -0.403

RRIRWRPPRLPRPRPRPRCWPRP
shrunken log2 fold change: 0.616

RRIRVRPPRLPRPRPRPMLDPRP
shrunken log2 fold change: -0.215

RRIRMRPPRLPRPRPRPDEEPRP
shrunken log2 fold change: 2.97

RRIRNRPPRLPRPRPRPQKKPRP
shrunken log2 fold change: 0.0889

RRIRHRPPRLPRPRPRPYLFPRP
shrunken log2 fold change: -0.523

RRIRSRPPRLPRPRPRPWEQPRP
shrunken log2 fold change: -0.208

RRIRVRPPRLPRPRPRPKCRPRP
shrunken log2 fold change: 0.224

RRIRERPPRLPRPRPRPNDHPRP
shrunken log2 fold change: -0.622

RRIRDRPPRLPRPRPRPEDWPRP
shrunken log2 fold change: 1.45

RRIRVRPPRLPRPRPRPMHYPRP
shrunken log2 fold change: -0.266

RRIRLRPPRLPRPRPRPNRKPRP
shrunken log2 fold change: -0.223

RRIRFRPPRLPRPRPRPPSKPRP
shrunken log2 fold change: -0.148

RRIRQRPPRLPRPRPRPLYKPRP
shrunken log2 fold change: -1.34

RRIRERPPRLPRPRPRPRMKPRP
shrunken log2 fold change: -0.243

RRIRFRPPRLPRPRPRPILQPRP
shrunken log2 fold change: -0.0746

RRIRIRPPRLPRPRPRPKCHPRP
shrunken log2 fold change: -0.199

RRIRLRPPRLPRPRPRPHGYPRP
shrunken log2 fold change: -0.528

RRIRERPPRLPRPRPRPVGHPRP
shrunken log2 fold change: -0.000999

RRIRGRPPRLPRPRPRPQHDPRP
shrunken log2 fold change: -0.000778

RRIRVRPPRLPRPRPRPGCGPRP
shrunken log2 fold change: 0.679

RRIRHRPPRLPRPRPRPYNRPRP
shrunken log2 fold change: -0.0244

RRIRTRPPRLPRPRPRPRACPRP
shrunken log2 fold change: 0.608

RRIRARPPRLPRPRPRPTPQPRP
shrunken log2 fold change: 0.745

RRIRTRPPRLPRPRPRPVRWPRP
shrunken log2 fold change: 0.774

RRIRIRPPRLPRPRPRPMTFPRP
shrunken log2 fold change: -0.0432

RRIRQRPPRLPRPRPRPYKVPRP
shrunken log2 fold change: 0.000796

RRIRNRPPRLPRPRPRPFGAPRP
shrunken log2 fold change: 0.00377

RRIRQRPPRLPRPRPRPFYSPRP
shrunken log2 fold change: -0.174

RRIRNRPPRLPRPRPRPIVWPRP
shrunken log2 fold change: 0.0313

RRIRKRPPRLPRPRPRPCTCPRP
shrunken log2 fold change: 0.00906

RRIRHRPPRLPRPRPRPEKGPRP
shrunken log2 fold change: -0.00804

RRIRFRPPRLPRPRPRPYGVPRP
shrunken log2 fold change: -0.00783

RRIRKRPPRLPRPRPRPSWFPRP
shrunken log2 fold change: -0.168

RRIRARPPRLPRPRPRPNRHPRP
shrunken log2 fold change: 0.0991

RRIRQRPPRLPRPRPRPTWAPRP
shrunken log2 fold change: 0.586

RRIRTRPPRLPRPRPRPRITPRP
shrunken log2 fold change: -0.474

RRIRHRPPRLPRPRPRPHFAPRP
shrunken log2 fold change: -0.101

RRIRLRPPRLPRPRPRPAMIPRP
shrunken log2 fold change: -0.223

RRIRDRPPRLPRPRPRPKSKPRP
shrunken log2 fold change: -0.105

RRIRHRPPRLPRPRPRPPCKPRP
shrunken log2 fold change: -0.196

RRIRMRPPRLPRPRPRPDNAPRP
shrunken log2 fold change: -0.267

RRIRSRPPRLPRPRPRPKMIPRP
shrunken log2 fold change: -0.292

RRIRFRPPRLPRPRPRPEFRPRP
shrunken log2 fold change: -0.0593

RRIRARPPRLPRPRPRPYKQPRP
shrunken log2 fold change: -0.295

RRIRERPPRLPRPRPRPFKPPRP
shrunken log2 fold change: -0.22

RRIRQRPPRLPRPRPRPTMCPRP
shrunken log2 fold change: -0.0814

RRIRARPPRLPRPRPRPWLMPRP
shrunken log2 fold change: 0.0299

RRIRTRPPRLPRPRPRPNNCPRP
shrunken log2 fold change: -0.0675

RRIRQRPPRLPRPRPRPEATPRP
shrunken log2 fold change: 0.353

RRIRMRPPRLPRPRPRPQIQPRP
shrunken log2 fold change: -0.0708

RRIRSRPPRLPRPRPRPLGYPRP
shrunken log2 fold change: -0.351

RRIRERPPRLPRPRPRPYCKPRP
shrunken log2 fold change: 0.0936

RRIRHRPPRLPRPRPRPKMEPRP
shrunken log2 fold change: -0.00674

RRIRYRPPRLPRPRPRPHMIPRP
shrunken log2 fold change: -0.734

RRIRFRPPRLPRPRPRPYMDPRP
shrunken log2 fold change: -0.0184

RRIRCRPPRLPRPRPRPGTCPRP
shrunken log2 fold change: -0.143

RRIRQRPPRLPRPRPRPWRVPRP
shrunken log2 fold change: -0.049

RRIRIRPPRLPRPRPRPPHLPRP
shrunken log2 fold change: -0.14

RRIRKRPPRLPRPRPRPKLTPRP
shrunken log2 fold change: 0.104

RRIRVRPPRLPRPRPRPDIYPRP
shrunken log2 fold change: -0.131

RRIRGRPPRLPRPRPRPHIWPRP
shrunken log2 fold change: 0.00296

RRIRLRPPRLPRPRPRPHSSPRP
shrunken log2 fold change: 0.0594

RRIRMRPPRLPRPRPRPVACPRP
shrunken log2 fold change: 0.122

RRIRSRPPRLPRPRPRPAVYPRP
shrunken log2 fold change: -0.585

RRIRWRPPRLPRPRPRPYKKPRP
shrunken log2 fold change: -0.225

RRIRLRPPRLPRPRPRPEVDPRP
shrunken log2 fold change: -0.0786

RRIRSRPPRLPRPRPRPHMWPRP
shrunken log2 fold change: 0.202

RRIRPRPPRLPRPRPRPDHCPRP
shrunken log2 fold change: -0.199

RRIRYRPPRLPRPRPRPIRRPRP
shrunken log2 fold change: -0.0923

RRIRMRPPRLPRPRPRPQAMPRP
shrunken log2 fold change: 0.318

RRIRFRPPRLPRPRPRPMTCPRP
shrunken log2 fold change: -0.0088

RRIRIRPPRLPRPRPRPIYPPRP
shrunken log2 fold change: -0.304

RRIRYRPPRLPRPRPRPRTCPRP
shrunken log2 fold change: -0.134

RRIRYRPPRLPRPRPRPKSGPRP
shrunken log2 fold change: 0.0623

RRIRVRPPRLPRPRPRPEIIPRP
shrunken log2 fold change: -0.0128

RRIRDRPPRLPRPRPRPQMTPRP
shrunken log2 fold change: 0.103

RRIRARPPRLPRPRPRPMCRPRP
shrunken log2 fold change: 0.0586

RRIRVRPPRLPRPRPRPFNQPRP
shrunken log2 fold change: -0.19

RRIRRRPPRLPRPRPRPFARPRP
shrunken log2 fold change: 0.217

RRIRTRPPRLPRPRPRPYQCPRP
shrunken log2 fold change: -0.0724

RRIRERPPRLPRPRPRPPDIPRP
shrunken log2 fold change: -0.225

RRIRGRPPRLPRPRPRPWYYPRP
shrunken log2 fold change: -0.148

RRIRCRPPRLPRPRPRPYHQPRP
shrunken log2 fold change: -0.819

RRIRERPPRLPRPRPRPMYSPRP
shrunken log2 fold change: -0.552

RRIRERPPRLPRPRPRPFYFPRP
shrunken log2 fold change: 0.935

RRIRIRPPRLPRPRPRPRYWPRP
shrunken log2 fold change: 0.0433

RRIRMRPPRLPRPRPRPEMHPRP
shrunken log2 fold change: 0.346

RRIRPRPPRLPRPRPRPQLGPRP
shrunken log2 fold change: 0.159

RRIRDRPPRLPRPRPRPTNLPRP
shrunken log2 fold change: -0.182

RRIRDRPPRLPRPRPRPWCTPRP
shrunken log2 fold change: 0.107

RRIRKRPPRLPRPRPRPGIEPRP
shrunken log2 fold change: 1.34

RRIRIRPPRLPRPRPRPPSMPRP
shrunken log2 fold change: -0.206

RRIRCRPPRLPRPRPRPYIKPRP
shrunken log2 fold change: -0.791

RRIRARPPRLPRPRPRPQLLPRP
shrunken log2 fold change: 0.527

RRIRARPPRLPRPRPRPGLGPRP
shrunken log2 fold change: 1.16

RRIRRRPPRLPRPRPRPCGPPRP
shrunken log2 fold change: 0.517

RRIRGRPPRLPRPRPRPSQNPRP
shrunken log2 fold change: 0.229

RRIRHRPPRLPRPRPRPRGEPRP
shrunken log2 fold change: -0.0677

RRIRCRPPRLPRPRPRPSSHPRP
shrunken log2 fold change: -0.0983

RRIRKRPPRLPRPRPRPYITPRP
shrunken log2 fold change: -0.548

RRIRIRPPRLPRPRPRPECSPRP
shrunken log2 fold change: -0.428

RRIRERPPRLPRPRPRPLKEPRP
shrunken log2 fold change: -0.0885

— the supplement of paper PMC9112550, “Optimization of the antimicrobial peptide Bac7 by deep mutational scanning” (BMC Biology, 2022)
